According to patent publication US20260265358A1 (BYOMASS, published 2026):
Substitutions are numbered along the chain they refer to. Where “and” joins values, the source holds several entries; their conditions need not be identical. Identical values can stand only once. Blank lines part the entries; values can stand above or below the binder they belong to.

Columns and labels:
Activin B [1] = target: T1, Activin B (UniProt P09529 293-407); assay: cell-based or functional assay
T1 sequence (looked up): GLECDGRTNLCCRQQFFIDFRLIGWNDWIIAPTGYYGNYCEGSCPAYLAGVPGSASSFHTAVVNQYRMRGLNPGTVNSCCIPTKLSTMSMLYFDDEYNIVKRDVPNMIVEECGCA

Human GDNF = target: T2, Human GDNF (human, UniProt P39905 78-211); assay: Octet BLI, IgG, avid
T2 sequence (looked up): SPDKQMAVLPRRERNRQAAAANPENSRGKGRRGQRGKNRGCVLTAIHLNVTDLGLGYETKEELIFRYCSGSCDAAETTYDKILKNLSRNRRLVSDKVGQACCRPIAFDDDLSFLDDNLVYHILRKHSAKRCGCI

BMP9 = target: T3, BMP9 (UniProt Q9UK05 320-429); assay: Octet BLI, IgG, avid
T3 sequence (looked up): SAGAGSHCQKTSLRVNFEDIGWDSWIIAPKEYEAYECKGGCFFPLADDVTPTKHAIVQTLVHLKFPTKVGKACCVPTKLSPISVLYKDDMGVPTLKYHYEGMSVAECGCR

Human GDF8 = Human GDF8 (human, UniProt O14793 267-375); assay: Octet BLI, IgG, avid
BMP10 = target: T4, BMP10 (UniProt O95393 317-424); assay: Octet BLI, IgG, avid
T4 sequence (looked up): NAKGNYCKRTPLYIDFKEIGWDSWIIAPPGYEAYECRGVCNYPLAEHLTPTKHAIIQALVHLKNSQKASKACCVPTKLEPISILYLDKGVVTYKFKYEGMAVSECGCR

Human GDF10 = target: T5, Human GDF10 (human, UniProt P55107 369-478); assay: Octet BLI, IgG, avid
T5 sequence (looked up): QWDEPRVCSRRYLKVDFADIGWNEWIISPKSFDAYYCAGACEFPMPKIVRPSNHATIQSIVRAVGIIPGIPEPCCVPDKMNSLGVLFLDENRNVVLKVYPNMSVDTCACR

Human GDF11 = Human GDF11 (human, UniProt O95390 299-407); assay: Octet BLI, IgG, avid
GDF15 Fc = target: T6, GDF15 Fc (UniProt Q99988 197-308, limits assumed); assay: Octet BLI, IgG, avid
T6 construct: not shown: Fc part
T6 sequence (looked up): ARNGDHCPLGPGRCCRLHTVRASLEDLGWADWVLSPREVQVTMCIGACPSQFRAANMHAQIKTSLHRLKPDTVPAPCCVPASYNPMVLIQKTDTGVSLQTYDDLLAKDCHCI

Activin B [2] = target: T1, Activin B; assay: Octet BLI, IgG, avid
Human Activin A Fc [3] = target: T7, Human Activin A Fc (human, UniProt P03970 309-424 (pig entry)); assay: Octet BLI, IgG, avid
T7 construct: also called human Activin A-Fc fusion; human Activin A-Fc antigen; not shown: Fc part
T7 sequence: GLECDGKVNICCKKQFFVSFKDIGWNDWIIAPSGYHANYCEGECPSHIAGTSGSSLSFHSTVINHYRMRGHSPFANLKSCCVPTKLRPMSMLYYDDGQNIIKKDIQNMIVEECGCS
Procedure: ForteBio affinity measurements were performed on an Octet HTX generally as previously described (see, e.g., Estep et al, Mabs 5(2), 270-278 (2013)). Briefly, ForteBio affinity measurements were performed by loading IgGs on-line onto AHC sensors. Sensors were equilibrated off-line in assay buffer for 30 min and then monitored on-line for 60 seconds for baseline establishment. Sensors with loaded IgGs were exposed to 100 nM antigen for 3 minutes, and afterwards were transferred to assay buffer for 3 min for off-rate measurement. All kinetics were analyzed using the 1:1 binding model.
Binding affinity and epitope binning assays were performed with a ForteBio instrument as described herein.

Human Activin A Fc [4] = target: T7, Human Activin A Fc; assay: KD with 5% HSA, method not stated
Human Activin A Fc [5] = target: T7, Human Activin A Fc; assay: KD with 0.1% HSA, method not stated
Human Activin A Fc [6] = target: T7, Human Activin A Fc; assay: KD with 0.1% BSA, method not stated
[7] = target: T8, Activin A (ligand of the Activin 2B Receptor/SMAD reporter assay) (UniProt P08476 311-426); assay: cell-based or functional assay
T8 sequence (looked up): T7 sequence

Chain of Human GDF11 (O95390 299-407 limits assumed): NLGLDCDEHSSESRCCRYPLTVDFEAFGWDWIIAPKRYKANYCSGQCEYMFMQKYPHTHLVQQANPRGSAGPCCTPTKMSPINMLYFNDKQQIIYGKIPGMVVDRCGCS

Activin B-ActRIIB SMAD IC50 pM (Activin B [1]): 30700 pM
binding result (Human GDNF): no binding (tested: 100 nM antigen)
binding result (BMP9): no binding (tested: 100 nM antigen)
binding result (Human GDF8): no binding (tested: 100 nM antigen)
binding result (BMP10): no binding (tested: 100 nM antigen)
binding result (Human GDF10): no binding (tested: 100 nM antigen)
binding result (Human GDF11): no binding (tested: 100 nM antigen)
binding result (GDF15 Fc): no binding (tested: 100 nM antigen)
binding result (Activin B [2]): no binding (tested: 100 nM antigen)
Kd (Human Activin A Fc [3]): 430 pM
B1: anti-Activin A antibody Clone K (IgG) (antibody, V domains shown)
VH: QVQLVQSGAEVKKPGSSVKVSCKASGGTSSSYAISWVRQAPGQGLEWMGYIIPAFGTANYAQKFQGRVTITADESTSTAYMELSSLRSEDTAVYYCARPVRTYPLGKYFYHWGQGTLVTVSS
VL: EIVLTQSPATLSLSPGERATLSCRASQSVSSYLAWYQQKPGQAPRLLIYDASNRATGIPARFSGSGSGTDFTLTISSLEPEDFAVYYCQQDSIFPPYTFGGGTKVEIKR
notes: IgG format; also called Antibody K

Kd (Human Activin A Fc [4]): 189 pM
Kd (Human Activin A Fc [5]): 156 pM
binding result (Human GDNF): no binding (tested: 100 nM antigen)
binding result (BMP9): no binding (tested: 100 nM antigen)
binding result (Human GDF8): no binding (tested: 100 nM antigen)
binding result (BMP10): no binding (tested: 100 nM antigen)
binding result (Human GDF10): no binding (tested: 100 nM antigen)
binding result (Human GDF11): no binding (tested: 100 nM antigen)
binding result (GDF15 Fc): no binding (tested: 100 nM antigen)
binding result (Activin B [2]): no binding (tested: 100 nM antigen)
Kd (Human Activin A Fc [6]): 128 pM
Kd (Human Activin A Fc [3]): 585 pM
B2: anti-Activin A antibody Clone Q (IgG) (antibody, V domains shown)
VH: QVQLVQSGAEVKKPGSSVKVSCKASGGSFSPYTWSWVRQAPGQGLEWMGGIIPISGTANTAQKFQGRVTITADESTSTAYMELSSLRSEDTAVYYCARGGPLSGWRASYYYWGQGTLVTVSS
VL: not shown
notes: IgG format; also called Antibody Q

Activin A-ActRIIB SMAD IC50 pM [7]: 324 pM and 282 pM and 361 pM
Activin B-ActRIIB SMAD IC50 pM (Activin B [1]): > 100000 pM
binding result (Human GDNF): no binding (tested: 100 nM antigen)
binding result (BMP9): no binding (tested: 100 nM antigen)
binding result (Human GDF8): no binding (tested: 100 nM antigen)
binding result (BMP10): no binding (tested: 100 nM antigen)
binding result (Human GDF10): no binding (tested: 100 nM antigen)
binding result (Human GDF11): no binding (tested: 100 nM antigen)
binding result (GDF15 Fc): no binding (tested: 100 nM antigen)
binding result (Activin B [2]): no binding (tested: 100 nM antigen)
Kd (Human Activin A Fc [3]): 810 pM
B3: anti-Activin A antibody Clone A (IgG) (antibody, V domains shown)
VH: QVQLVQSGAEVKKPGASVKVSCKASGYTFTGYYMHWVRQAPGQGLEWMGSINPSSGGTNYAQKFQGRVTMTTDTSTSTAYMELRSLRSDDTAVYYCARARDIAAAGLGAFDYWGQGTLVTVSS
VL: EIVLTQSPGTLSLSPGERATLSCRASQSVRSSYLAWYQQKPGQAPRLLIYGASSRATGIPDRFSGSGSGTDFTLTISRLEPEDFAVYYCQQYVSYPRTFGGGTKVEIKR
notes: IgG format; also called Antibody A

Activin A-ActRIIB SMAD IC50 pM [7]: 1.09 pM
Activin B-ActRIIB SMAD IC50 pM (Activin B [1]): 52400 pM
binding result (Human GDNF): no binding (tested: 100 nM antigen)
binding result (BMP9): no binding (tested: 100 nM antigen)
binding result (Human GDF8): no binding (tested: 100 nM antigen)
binding result (BMP10): no binding (tested: 100 nM antigen)
binding result (Human GDF10): no binding (tested: 100 nM antigen)
binding result (Human GDF11): no binding (tested: 100 nM antigen)
binding result (GDF15 Fc): no binding (tested: 100 nM antigen)
binding result (Activin B [2]): no binding (tested: 100 nM antigen)
Kd (Human Activin A Fc [3]): 536 pM
B4: anti-Activin A antibody Clone I (IgG) (antibody, V domains shown)
VH: QVQLVQSGAEVKKPGSSVKVSCKASGGTFSNYAISWVRQAPGQGLEWMGYIIPFFGTANYAQKFQGRVTITADESTSTAYMELSSLRSEDTAVYYCARGGSGYSTSWGSSLYWGQGTLVTVSS
VL: B3 VL with R30S, S54Y, Q90L, Y92S, V93G, S94V, Y95F, R97Y
notes: IgG format; also called Antibody I

Activin A-ActRIIB SMAD IC50 pM [7]: 16.5 pM
Activin B-ActRIIB SMAD IC50 pM (Activin B [1]): 83600 pM
binding result (Human GDNF): no binding (tested: 100 nM antigen)
binding result (BMP9): no binding (tested: 100 nM antigen)
binding result (Human GDF8): no binding (tested: 100 nM antigen)
binding result (BMP10): no binding (tested: 100 nM antigen)
binding result (Human GDF10): no binding (tested: 100 nM antigen)
Kd (Human GDF11): 27300 pM
binding result (GDF15 Fc): no binding (tested: 100 nM antigen)
Kd (Human Activin A Fc [3]): 551 pM
B5: anti-Activin A antibody Clone E (IgG) (antibody, V domains shown)
VH: B3 VH with T30H, Y33N, S54Y, G57Y, N59I, T72R, T76I, R84S, S85R
VL: B3 VL
notes: IgG format; also called Antibody E

Activin A-ActRIIB SMAD IC50 pM [7]: 36.9 pM
Activin B-ActRIIB SMAD IC50 pM (Activin B [1]): > 100000 pM
binding result (Human GDNF): no binding (tested: 100 nM antigen)
binding result (BMP9): no binding (tested: 100 nM antigen)
binding result (Human GDF8): no binding (tested: 100 nM antigen)
binding result (BMP10): no binding (tested: 100 nM antigen)
binding result (Human GDF10): no binding (tested: 100 nM antigen)
binding result (Human GDF11): no binding (tested: 100 nM antigen)
binding result (GDF15 Fc): no binding (tested: 100 nM antigen)
Kd (Human Activin A Fc [3]): 666 pM
B6: anti-Activin A antibody Clone H (IgG) (antibody, V domains shown)
VH: B3 VH with Y33H, M34I, S50H, N52S, P53A, S54Y, G57T, F64L
VL: B3 VL with V93S, S94N
notes: IgG format; also called Antibody H

Activin A-ActRIIB SMAD IC50 pM [7]: 15.8 pM
Activin B-ActRIIB SMAD IC50 pM (Activin B [1]): > 100000 pM
binding result (Human GDNF): no binding (tested: 100 nM antigen)
binding result (BMP9): no binding (tested: 100 nM antigen)
binding result (Human GDF8): no binding (tested: 100 nM antigen)
binding result (BMP10): no binding (tested: 100 nM antigen)
binding result (Human GDF10): no binding (tested: 100 nM antigen)
binding result (Human GDF11): no binding (tested: 100 nM antigen)
binding result (GDF15 Fc): no binding (tested: 100 nM antigen)
binding result (Activin B [2]): no binding (tested: 100 nM antigen)
Kd (Human Activin A Fc [3]): 680 pM
B7: anti-Activin A antibody Clone G (IgG) (antibody, V domains shown)
VH: B3 VH with G31S, M34I, S50A, N52Y, P53A, S54Y, G57D, F64L
VL: B3 VL with V93S, S94N
notes: IgG format; also called Antibody G

Activin A-ActRIIB SMAD IC50 pM [7]: 200 pM
Activin B-ActRIIB SMAD IC50 pM (Activin B [1]): > 100000 pM
binding result (Human GDNF): no binding (tested: 100 nM antigen)
binding result (BMP9): no binding (tested: 100 nM antigen)
binding result (Human GDF8): no binding (tested: 100 nM antigen)
binding result (BMP10): no binding (tested: 100 nM antigen)
binding result (Human GDF10): no binding (tested: 100 nM antigen)
binding result (Human GDF11): no binding (tested: 100 nM antigen)
binding result (GDF15 Fc): no binding (tested: 100 nM antigen)
Kd (Activin B [2]): 241000 pM
Kd (Human Activin A Fc [3]): 1570 pM
B8: anti-Activin A antibody Clone L (IgG) (antibody, V domains shown)
VH: QVQLQESGPGLVKPSETLSLTCAVSGYSISSGYYWGWIRQPPGKGLEWIGSIYHSGSTYYNPSLKSRVTISVDTSKNQFSLKLSSVTAADTAVYYCAREAGSGYWYLSVYGMDVWGQGTTVTVSS
VL: EIVLTQSPATLSVSPGERATLSCRASQSVSSNLAWYQQKPGQAPRLLIYGASTRATGIPARFSGSGSGTEFTLTISSLQSEDFAVYYCQQSDDWPWTFGGGTKVEIKR
notes: IgG format; also called Antibody L
